From patent US20220002426A1 (BIOINVENT INTERNATIONAL, published 2022)
Changes are numbered by the printed parent chain. Names and notes keep the numbering of the source.

T1: wild type, full length human TNFR2 (on cells) (human, UniProt P20333 23-461)
T1 construct: whole, on cells; also called hTNFR2; TNFRII
T1 sequence (looked up): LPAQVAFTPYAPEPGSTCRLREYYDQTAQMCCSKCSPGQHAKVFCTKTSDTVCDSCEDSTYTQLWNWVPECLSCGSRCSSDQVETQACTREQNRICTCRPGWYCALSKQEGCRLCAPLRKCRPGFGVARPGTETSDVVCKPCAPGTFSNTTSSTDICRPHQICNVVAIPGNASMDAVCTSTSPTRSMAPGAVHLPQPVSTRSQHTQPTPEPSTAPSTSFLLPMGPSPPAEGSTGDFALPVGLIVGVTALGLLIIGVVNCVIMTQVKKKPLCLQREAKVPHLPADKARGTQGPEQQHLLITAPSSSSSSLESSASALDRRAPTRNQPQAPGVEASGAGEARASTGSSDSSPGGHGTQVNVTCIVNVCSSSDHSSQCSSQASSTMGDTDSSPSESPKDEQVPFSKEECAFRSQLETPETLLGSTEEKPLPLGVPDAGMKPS

T2: hTNFRII (Sinobioologicals Cat nr10414-H08H) (human, UniProt P20333 23-257)
T2 construct: bought; also called immobilized TNFR2
T2 sequence (looked up): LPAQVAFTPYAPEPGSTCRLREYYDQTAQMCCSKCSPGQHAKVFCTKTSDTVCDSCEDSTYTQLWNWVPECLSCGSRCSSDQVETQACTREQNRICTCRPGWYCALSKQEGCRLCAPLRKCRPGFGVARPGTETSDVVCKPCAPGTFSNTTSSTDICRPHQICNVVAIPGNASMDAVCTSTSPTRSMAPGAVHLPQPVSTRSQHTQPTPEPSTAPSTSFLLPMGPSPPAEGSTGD

T3: recombinant human TNFR2-Fc protein (Sino Biological) (human, UniProt P20333 23-257, limits assumed)
T3 construct: bought; also called human TNFR2 protein; not shown: Fc part of the bought fusion protein; not described
T3 sequence (looked up): T2 sequence (looked up)

T4: wild type, full length murine TNFR2 (on cells) (mouse, UniProt P25119 23-474)
T4 construct: whole, on cells; also called mTNFR2; mouse TNFR2
T4 sequence (looked up): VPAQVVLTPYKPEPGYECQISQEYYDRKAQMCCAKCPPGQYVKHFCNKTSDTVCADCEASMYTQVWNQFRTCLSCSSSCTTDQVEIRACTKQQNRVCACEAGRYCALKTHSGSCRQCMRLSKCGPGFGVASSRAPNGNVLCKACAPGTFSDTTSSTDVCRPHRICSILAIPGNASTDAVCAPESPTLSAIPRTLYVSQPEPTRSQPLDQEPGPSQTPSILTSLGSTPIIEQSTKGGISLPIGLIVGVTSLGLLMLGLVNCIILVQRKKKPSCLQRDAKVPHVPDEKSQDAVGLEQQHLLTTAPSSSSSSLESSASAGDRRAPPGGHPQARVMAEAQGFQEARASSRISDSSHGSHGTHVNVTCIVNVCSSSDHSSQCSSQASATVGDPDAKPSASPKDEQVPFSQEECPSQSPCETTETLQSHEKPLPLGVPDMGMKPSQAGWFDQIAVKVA

B1: 001-B09 (antibody, V domains shown)
VH: EVQLLESGGGLVQPGGSLRLSCAASGFTFSRHAMNWVRQAPGKGLEWVSSISTGSSYIDYADSVKGRFTISRDNSKNTLYLQMNSLRAEDTAVYYCAREKGHYYYGMDVWGQGTLVTVSS
VL: QSVLTQPPSASGTPGQRVTISCTGSSSNIGAGYDVHWYQQLPGTAPKLLIYGNSYRPSGVPDRFSGSKSGTSASLAISGLRSEDEADYYCQSYDTSLSAYVVFGGGTKLTVLG
notes: IgG
B2: 005-F10 (antibody, V domains shown)
VH: EVQLLESGGGLVQPGGSLRLSCAASGFTFSDYYMTWIRQAPGKGLEWVSGISGSGGYIHYADSVKGRFTISRDNSKNTLYLQMNSLRAEDTAVYYCAREGLLPDAFDIWGQGTLVTVSS
VL: not shown
notes: IgG
B3: 001-D01 (antibody, V domains shown)
VH: not shown
VL: QSVLTQPPSASGTPGQRVTISCSGSSSNIGSNTVNWYQQLPGTAPKLLIYGNSNRPSGVPDRFSGSKSGTSASLAISGLRSEDEADYYCQSYDSSLSASVFGGGTKLTVLG
notes: IgG
B4: 001-F02 (antibody, V domains shown)
VH: EVQLLESGGGLVQPGGSLRLSCAASGFTFSDYYMSWVRQAPGKGLEWVANINTDGSEKYYLDSVKGRFTISRDNSKNTLYLQMNSLRAEDTAVYYCAREEYGAFDIWGQGTLVTVSS
VL: QSVLTQPPSASGTPGQRVTISCSGSSSNIGSNTVNWYQQLPGTAPKLLIYDNNKRPSGVPDRFSGSKSGTSASLAISGLRSEDEADYYCQSFDRGLSGSIVFGGGTKLTVLG
notes: IgG; In the MDSC assay tested as hIgG1, hIgG2 and N297Q
B5: 001-B05 (antibody, V domains shown)
VH: EVQLLESGGGLVQPGGSLRLSCAASGFTFSNAWMSWVRQAPGKGLEWVSSISSASGYIYYGDSVKGRFTISRDNSKNTLYLQMNNLRAEDTAVYYCARGTLYGDFDEFWGQGTLVTVSS
VL: B4 VL with S31N, T33A, D51G, N53T, K54N, F92Y, R94S, G95S, S99Y, I100V
notes: IgG
B6: 001-C05 (antibody, V domains shown)
VH: EVQLLESGGGLVQPGGSLRLSCAASGFTFSSNEMSWIRQAPGKGLEWVSVIYSGGSTYYADSVKGRFTISRDNSKNTLYLQMNSLRAEDTAVYYCARREGWLVPFDYWGQGTLVTVSS
VL: B4 VL with D51G, N53I, K54I, R94T, G95T
notes: IgG
B7: 001-C07 (antibody, V domains shown)
VH: EVQLLESGGGLVQPGGSLRLSCAASGFTFSSYEMNWVRQAPGKGLEWVSTITGGGSIYDANSVQGRFTISRDNSKNTLYLQMNSLRAEDTAVYYCARDSTYHSSGYYYDVFDIWGQGTLVTVSS
VL: not shown
notes: IgG
B8: 001-A09 (antibody, V domains shown)
VH: EVQLLESGGGLVQPGGSLRLSCAASGFTFSSNYMSWVRQAPGKGLEWVSVISGSGGSTYYADSVKGRFTISRDNSKNTLYLQMNSLRAEDTAVYYCARDRGWFDPWGQGTLVTVSS
VL: QSVLTQPPSASGTPGQRVTISCSGSRSNIDNSYVSWYQQLPGTAPKLLIYRNNQRPSGVPDRFSGSKSGTSASLAISGLRSEDEADYYCATWDDSLSGPVFGGGTKLTVLG
notes: IgG
B9: 001-C08 (antibody, V domains shown)
VH: EVQLLESGGGLVQPGGSLRLSCAASGFTFSNAWMSWVRQAPGKGLEWVSGISSSGSSAYYADSVKGRFTISRDNSKNTLYLQMNSLRAEDTAVYYCARHYYYHIAGYYYDTFDIWGQGTLVTVSS
VL: not shown
notes: IgG; also called 1-008
B10: 004-E08 (antibody, V domains shown)
VH: EVQLLESGGGLVQPGGSLRLSCAASGFTFSRYWMHWVRQVPGKGLEWVSGISDSGVVTYYADSVKGRFTISRDNSKNTLYLQMNSLRAEDTAVYYCARAQSVAFDIWGQGTLVTVSS
VL: QSVLTQPPSASGTPGQRVTISCSGSSSNIGAGHDVHWYQQLPGTAPKLLIYYDDLLPSGVPDRFSGSKSGTSASLAISGLRSEDEADYYCAAWDDSLSGWVFGGGTKLTVLG
notes: IgG
B11: 001-E06 (antibody, V domains shown)
VH: EVQLLESGGGLVQPGGSLRLSCAASGFTFSSNYMSWVRQAPGKGLEWVALIWYDGSNKYYADSVKGRFTISRDNSKNTLYLQMNSLRAEDTAVYYCAKDPLFDSWGQGTLVTVSS
VL: B10 VL with S23T, S25R, H33Y, Y52D, D53N, D54N, L55K, L56R, S98N, W100P
notes: IgG
B12: 001-H10 (antibody, V domains shown)
VH: EVQLLESGGGLVQPGGSLRLSCAASGFTFDDYGMSWVRQAPGKGLEWVSVIYSGGSTYYADSVKGRFTISRDNSKNTLYLQMNSLRAEDTAVYYCARDRSSSWYRDGMDVWGQGTLVTVSS
VL: B10 VL with S23T, H33Y, Y52G, D53N, D54S, L55N, L56R
notes: IgG
B13: 001-H09 (antibody, V domains shown)
VH: EVQLLESGGGLVQPGGSLRLSCAASGFTFSSYAMSWVRQAPGKGLEWVATISYHGSDKDYADSVKGRFTISRDNSKNTLYLQMNSLRAEDTAVYYCARDANYHSSGYYYDVFDIWGQGTLVTVSS
VL: not shown
notes: IgG
B14: 005-B02 (antibody, V domains shown)
VH: EVQLLESGGGLVQPGGSLRLSCAASGFTFSDYYMSWIRQAPGKGLEWVALIWYDGGNEYYADSVKGRFTISRDNSKNTLYLQMNSLRAEDTAVYYCVRETGNYGMDVWGQGTLVTVSS
VL: QSVLTQPPSASGTPGQRVTISCTGSSSNIGAGYDVHWYQQLPGTAPKLLIYRNNQRPSGVPDRFSGSKSGTSASLAISGLRSEDEADYYCATWDDRVNGPVFGGGTKLTVLG
notes: IgG
B15: 001-B11 (antibody, V domains shown)
VH: EVQLLESGGGLVQPGGSLRLSCAASGFTFSSYSMNWVRQAPGKGLEWVAVMSYDEYNTYYADSVKGRFTISRDNSKNTLYLQMNSLRAEDTAVYYCAKGFYGDYPLWDYWGQGTLVTVSS
VL: not shown
notes: IgG

Each binder was assayed against T1, wild type, full length human TNFR2 (on …) (assay: FACS, activated CD4+ T cells).
Method: The ability and affinity of TNFR2 n-CoDeR® antibodies to bind TNFR2 expressed on cells were obtained using in vitro activated CD4⁺ T cells. Human CD4⁺ T cells were stimulated with 50 ng/ml rhIL-2 (R&D systems) and Dynabeads® T-Activator CD3/CD28 for T-Cell Expansion and Activation (Gibco) 2-3 days at 37 degrees. […] Cells were then incubated with an APC conjugated a-human IgG secondary ab (Jackson) followed by analysis by flow cytometry (FACSVerse, BD).

Binder	EC50
B1	29 nM
B2	32 nM
B3	3.9 nM
B4	0.79 nM
B5	1.5 nM
B6	12 nM
B7	36 nM
B8	48 nM
B9	2.6 nM
B10	2.3 nM
B11	4.1 nM
B12	1.1 nM
B13	16 nM
B14	0.8 nM
B15	27 nM

What follows are binders tested against T2, hTNFRII (Sinobioologicals Cat …) (assay: blocking ELISA, coated hTNFRII, competitor hTNF-α-bio 5 nM).
Method: 96-well plates were coated with hTNFRII (Sinobioologicals Cat nr10414-H08H) or mTNFRII (Sinobioologicals Cat No. 50128 M08H) at 2.5 pmol/well in ELISA coating buffer (0.1 M sodium carbonate pH 9.5) and incubated overnight at 4° C. After washing in ELISA wash buffer (PBS with 0.05% Tween20), the plates were incubated under slow agitation for 1 h in room temperature with n-CoDeR® mAbs at 10 μg/ml (one-dose ELISA) or 33 nM and subsequent 1:2 dilutions (titration ELISA) in block buffer containing 0.45% fish gelatin. […] Thereafter, plates were washed. For the human ELISAs, Streptavidin-HRP (Jackson Cat No. 016-030-084) diluted 1:2000 in block buffer were added and again incubated for 1 h at room temperature followed by washes first in ELISA buffer and then in Tris buffer (pH 9.8). The substrate (Super Signal ELISA Pico from Thermo Scientific Cat. No. 37069) were thereafter diluted according to the manufacturers instruction, added to the wells and incubated in darkness for 10 min before reading in a Tecan Ultra. […] After washing, anti-Rabbit-HRP diluted 1:10 000 in block buffer was added and again incubated for 1 h at room temperature. Substrate adding and reading were performed as above.

Binder	EC50
B2	0.03 nM
B3	1.4 nM
B7	0.8 nM
B9	1.1 nM
B11	0.3 nM
B12	0.9 nM
B13	1.4 nM
B14	0.2 nM
B15	1 nM

Each binder was assayed against T3, recombinant human TNFR2-Fc protein … (assay: ELISA, coated TNFR2-Fc).
Method: 96-well plates (Lumitrac 600 LIA plate, Greiner) were coated overnight at 4° C. with recombinant human or mouse TNFR2-Fc protein (Sino Biological) at 1 pmol/well. After washing, titrated doses of anti-TNFR2 mAbs from 20 μg/ml to 0.1 ng/ml (133 nM to 1 pM) were allowed to bind for 1 hour. Plates were then washed again, and bound antibodies were detected with an anti-human-F(ab)-HRP secondary antibody (Jackson ImmunoResearch) diluted in 50 ng/ml. Super Signal ELISA Pico (Thermo Scientific) was used as substrate and the plates were analyzed using Tecan Ultra Microplate reader.

Binder	EC50
B1	0.18 nM
B2	0.22 nM
B3	0.37 nM
B4	0.31 nM
B5	0.23 nM
B6	0.38 nM
B7	0.26 nM
B8	4.4 nM
B9	0.082 nM
B10	0.38 nM
B11	0.2 nM
B12	0.29 nM
B13	0.3 nM
B14	0.15 nM
B15	0.25 nM

What follows are binders tested against T4, wild type, full length murine TNFR2 (on …) (assay: FACS, transfected HEK293 cells).

Binder	binding result
B4	no binding
